In US20220204580A1 (AstraZeneca / MedImmune, published 2022):
Numbered stars: 1 amine (or outer) side, 2 acyl side, 3 side chain; on linkers, the order of the positions; unused ones are H or OH. Bridge positions count the residues as written; N and C are the ends. Square brackets hold non-standard residues; d marks the D form. Side chains are listed from the residue outwards. Ends that are not written are not given here. * marks the point of attachment. C18 diacid = O=C(O)CCCCCCCCCCCCCCCCC(=O)*; γGlu = O=C(O)[C@H](CCC(=O)[*:2])N[*:1]; αMeF = C[C@](N)(Cc1ccccc1)C(=O)O

How the values were obtained:
Assay in all cases: cell-based or functional assay
[1] = molecular target: T1, human amylin receptor (calcitonin receptor co-expressed with receptor activity modifying protein, RAMP3) (human, UniProt P30988 25-474; O60896 24-148)
T1 sequence (looked up) 1: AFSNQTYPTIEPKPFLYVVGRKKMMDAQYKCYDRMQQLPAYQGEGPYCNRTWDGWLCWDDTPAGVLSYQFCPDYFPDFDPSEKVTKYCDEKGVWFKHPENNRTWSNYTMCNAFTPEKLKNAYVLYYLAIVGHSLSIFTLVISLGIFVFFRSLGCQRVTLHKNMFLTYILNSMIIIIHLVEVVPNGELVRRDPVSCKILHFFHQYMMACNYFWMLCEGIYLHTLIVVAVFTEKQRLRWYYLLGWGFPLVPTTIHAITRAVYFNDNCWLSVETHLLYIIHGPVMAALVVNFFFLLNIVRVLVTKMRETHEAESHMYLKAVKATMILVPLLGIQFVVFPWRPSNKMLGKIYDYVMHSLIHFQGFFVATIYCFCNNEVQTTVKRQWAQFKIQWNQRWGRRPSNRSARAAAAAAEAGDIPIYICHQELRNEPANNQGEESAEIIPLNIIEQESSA
T1 sequence (looked up) 2: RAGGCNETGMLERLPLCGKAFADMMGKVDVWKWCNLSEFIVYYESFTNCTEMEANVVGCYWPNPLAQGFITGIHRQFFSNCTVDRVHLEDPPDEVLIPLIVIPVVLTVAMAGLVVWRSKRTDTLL

[2] = molecular target: T2, human calcitonin receptor (human, UniProt P30988 25-474)
T2 sequence (looked up): T1 sequence (looked up) 1

[3] = molecular target: T3, rat amylin receptor (calcitonin receptor co-expressed with receptor activity modifying protein, RAMP3) (rat, UniProt P32214 25-516; Q9JJ73 23-147)
T3 sequence (looked up) 1: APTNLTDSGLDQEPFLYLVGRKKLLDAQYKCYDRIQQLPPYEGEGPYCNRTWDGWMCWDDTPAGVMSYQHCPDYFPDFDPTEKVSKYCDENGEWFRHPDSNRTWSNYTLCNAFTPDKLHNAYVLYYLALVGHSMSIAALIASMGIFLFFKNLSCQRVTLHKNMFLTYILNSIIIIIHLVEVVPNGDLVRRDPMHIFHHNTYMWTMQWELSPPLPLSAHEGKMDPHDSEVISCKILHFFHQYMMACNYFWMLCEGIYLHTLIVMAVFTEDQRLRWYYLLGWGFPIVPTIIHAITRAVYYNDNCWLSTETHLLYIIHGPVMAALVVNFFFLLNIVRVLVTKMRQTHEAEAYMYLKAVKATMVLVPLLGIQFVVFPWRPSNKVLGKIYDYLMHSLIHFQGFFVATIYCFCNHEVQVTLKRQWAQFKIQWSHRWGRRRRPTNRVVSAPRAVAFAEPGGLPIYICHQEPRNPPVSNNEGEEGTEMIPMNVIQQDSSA
T3 sequence (looked up) 2: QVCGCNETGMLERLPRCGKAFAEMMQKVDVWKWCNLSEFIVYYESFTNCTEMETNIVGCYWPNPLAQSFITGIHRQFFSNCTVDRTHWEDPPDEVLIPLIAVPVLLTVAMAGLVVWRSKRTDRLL

[4] = molecular target: T4, rat calcitonin receptor (rat, UniProt P32214 25-516)
T4 sequence (looked up): T3 sequence (looked up) 1

EC50 (cAMP production) [1]: 0.127 nM | Ratio (EC50 hCTR / EC50 hAMYR3) [1]: 15 | EC50 (cAMP production) [2]: 1.86 nM | EC50 (cAMP production) [3]: 0.0177 nM | EC50 (cAMP production) [4]: 0.755 nM
B1: Peptide 24 (SEQ ID NO: 24) (peptide)
peptide: K([γGlu-γGlu-C18 diacid])CNTATCATQRLANFLVHSSNN[αMeF]GPILPPTRVGSNTY-NH2
modifications: disulfide 2-7; N-terminus assumed
SMILES: CC[C@H](C)[C@H](NC(=O)[C@@H]1CCCN1C(=O)CNC(=O)[C@](C)(Cc1ccccc1)NC(=O)[C@H](CC(N)=O)NC(=O)[C@H](CC(N)=O)NC(=O)[C@H](CO)NC(=O)[C@H](CO)NC(=O)[C@H](Cc1c[nH]cn1)NC(=O)[C@@H](NC(=O)[C@H](CC(C)C)NC(=O)[C@H](Cc1ccccc1)NC(=O)[C@H](CC(N)=O)NC(=O)[C@H](C)NC(=O)[C@H](CC(C)C)NC(=O)[C@H](CCCNC(=N)N)NC(=O)[C@H](CCC(N)=O)NC(=O)[C@@H](NC(=O)[C@H](C)NC(=O)[C@@H]1CSSC[C@H](NC(=O)[C@@H](N)CCCCNC(=O)CC[C@H](NC(=O)CC[C@H](NC(=O)CCCCCCCCCCCCCCCCC(=O)O)C(=O)O)C(=O)O)C(=O)N[C@@H](CC(N)=O)C(=O)N[C@@H]([C@@H](C)O)C(=O)N[C@@H](C)C(=O)N[C@@H]([C@@H](C)O)C(=O)N1)[C@@H](C)O)C(C)C)C(=O)N[C@@H](CC(C)C)C(=O)N1CCC[C@H]1C(=O)N1CCC[C@H]1C(=O)N[C@H](C(=O)N[C@@H](CCCNC(=N)N)C(=O)N[C@H](C(=O)NCC(=O)N[C@@H](CO)C(=O)N[C@@H](CC(N)=O)C(=O)N[C@H](C(=O)N[C@@H](Cc1ccc(O)cc1)C(N)=O)[C@@H](C)O)C(C)C)[C@@H](C)O
